Source: patent US20260265361A1 (PHRONTLINE BIOPHARMA SUZHOU, published 2026)

Key:
[1] = target: T1, recombinant human FcγRI protein (ACRO Biosystems, Cat. FCA-H52H1) (human, UniProt P12314 16-288, limits assumed); assay: BLI (ForteBio Octet Red 96), human FcγRI immobilised on HIS1K sensors, 100 nM antibody; FcγRI table
T1 construct: also called human FcγRI receptor

[2] = target: T2, Recombinant human EGFR protein (ACRO Biosystems, EGR-H5222) (human, UniProt P00533 25-645); assay: ELISA, plate coated with recombinant human EGFR at 1 µg/mL, HRP-labelled secondary antibody, OD450; EGFR panel, table under the curves (unit from the concentration axis)
T2 construct: Bought protein

[3] = target: T1, recombinant human FcγRI protein (ACRO …); assay: BLI (ForteBio Octet Red 96), human FcγRI immobilised on HIS1K sensors, 100 nM antibody; FcγRI table, column Kdis
[4] = target: T3, recombinant human FcRn (ACROBiosystems Cat FCM-H8286) (human, UniProt P55899 24-297; P61769 21-119); assay: BLI (ForteBio Octet Red 96), human FcRn immobilised on SA sensors, pH 6.0 buffer, 100 nM antibody; FcRn table, column Kdis
T3 construct: also called human FcRn receptor

[5] = target: T3, recombinant human FcRn (ACROBiosystems …); assay: BLI (ForteBio Octet Red 96), human FcRn immobilised on SA sensors, pH 6.0 buffer, 100 nM antibody; FcRn table

T3 sequence (P55899 24-297 limits assumed, chain 1 of 2): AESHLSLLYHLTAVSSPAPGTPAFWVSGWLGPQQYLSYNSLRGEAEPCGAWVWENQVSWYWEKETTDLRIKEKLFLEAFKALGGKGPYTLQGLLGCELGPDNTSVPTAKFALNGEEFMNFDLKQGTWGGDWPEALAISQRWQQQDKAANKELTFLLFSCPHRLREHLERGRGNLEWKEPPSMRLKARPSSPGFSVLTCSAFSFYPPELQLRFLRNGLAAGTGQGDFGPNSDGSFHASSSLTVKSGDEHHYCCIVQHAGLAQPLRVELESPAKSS
T3 sequence (P61769 21-119 limits assumed, chain 2 of 2): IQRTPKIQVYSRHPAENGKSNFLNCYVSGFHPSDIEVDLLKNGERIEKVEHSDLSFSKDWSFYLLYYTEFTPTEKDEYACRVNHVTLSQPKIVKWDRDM
T1 sequence (P12314 16-288 limits assumed): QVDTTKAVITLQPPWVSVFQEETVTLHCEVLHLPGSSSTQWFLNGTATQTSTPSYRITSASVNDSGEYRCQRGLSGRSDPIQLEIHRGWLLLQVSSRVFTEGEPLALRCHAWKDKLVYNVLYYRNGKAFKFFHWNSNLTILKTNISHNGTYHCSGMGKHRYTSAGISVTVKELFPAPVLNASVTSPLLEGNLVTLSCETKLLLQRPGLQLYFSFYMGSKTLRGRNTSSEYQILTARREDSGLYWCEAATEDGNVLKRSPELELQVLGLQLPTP

Row | Binder | Kd [1] [µM] | kon [1] [M⁻¹ s⁻¹] | EC50 [2] [mg/L] | koff [3] [s⁻¹] | koff [4] [s⁻¹] | Kd [5] [µM] | kon [5] [M⁻¹ s⁻¹]
1 | Fab-Fc/Fab-Fc bispecific antibody (zalutumumab anti-EGFR A half-antibody / pertuzumab anti-HER2 B half-antibody), M1 combination (K2/H2) (bispecific antibody, No linker named between Fab and Fc; also called M1 mutant combination) heavy 1: not shown light 1: not shown heavy 2: EVQLVESGGGLVQPGGSLRLSCAASGFTFTDYTMDWVRQAPGKGLEWVADVNPNSGGSIYNQRFKGRFTLSVDRSKNTLYLQMNSLRAEDTAVYYCARNLGPSFYFDYWGQGTLVTVSSASTKGPSVFPLAPSSKSTSGGTAALGCLVKDYFPEPVTVSWNSGALTSGVHTFPAVLQSSGLYSLSSVVTVPSSSLGTQTYICNVNHKPSNTKVDKKVEPKSCDKTHTCPPCPAPELLGGPSVFLFPPKPKDTLMISRTPEVTCVVVDVSHEDPEVKFNWYVDGVEVHNAKTKPREEQYNSTYRVVSVLTVLHQDWLNGKEYKCKVSNKALPAPIEKTISKAKGQPREPQVYTLPPSREEMTKNQVSLSCAVKGFYPSDIAVEWESNGQPENNYKTTPPVLRSDGSFFLVSKLTVDKSRWQQGNVFSCSVMHEALHNHYTQKSLSLSPGK light 2: not shown | 0.01 | 459000 | 0.017 | 0.00461 | 0.0261 | 0.0144 | 1.82e+06
2 | Fab-Fc/Fab-Fc bispecific antibody (zalutumumab anti-EGFR A half-antibody / pertuzumab anti-HER2 B half-antibody), M3 combination (K2/H7) (bispecific antibody, No linker named between Fab and Fc; also called M3 mutant combination) heavy 1: not shown light 1: not shown heavy 2: EVQLVESGGGLVQPGGSLRLSCAASGFTFTDYTMDWVRQAPGKGLEWVADVNPNSGGSIYNQRFKGRFTLSVDRSKNTLYLQMNSLRAEDTAVYYCARNLGPSFYFDYWGQGTLVTVSSASTKGPSVFPLAPSSKSTSGGTAALGCLVKDYFPEPVTVSWNSGALTSGVHTFPAVLQSSGLYSLSSVVTVPSSSLGTQTYICNVNHKPSNTKVDKKVEPKSCDKTHTCPPCPAPELLGGPSVFLFPPKPKDTLMISRTPEVTCVVVDVSHEDPEVKFNWYVDGVEVHNAKTKPREEQYNSTYRVVSVLTVLHQDWLNGKEYKCKVSNKALPAPIEKTISKAKGQPREPQVYTYPPSREEMTKNQVSLSCAVKGFYPSDIAVEWESNGQPENNYKTTPPVLRSDGSFFLVSKLTVDKSRWQQGNVFSCSVMHEALHNHYTQKSLSLSPGK light 2: not shown | 0.0103 | 455000 | 0.0221 | 0.00471 | 0.0274 | 0.0177 | 1.55e+06
3 | Fab-Fc/Fab-Fc bispecific antibody (zalutumumab anti-EGFR A half-antibody / pertuzumab anti-HER2 B half-antibody), M2 combination (K0/H8) (bispecific antibody, No linker named between Fab and Fc; also called M2 mutant combination) heavy 1: not shown light 1: not shown heavy 2: EVQLVESGGGLVQPGGSLRLSCAASGFTFTDYTMDWVRQAPGKGLEWVADVNPNSGGSIYNQRFKGRFTLSVDRSKNTLYLQMNSLRAEDTAVYYCARNLGPSFYFDYWGQGTLVTVSSASTKGPSVFPLAPSSKSTSGGTAALGCLVKDYFPEPVTVSWNSGALTSGVHTFPAVLQSSGLYSLSSVVTVPSSSLGTQTYICNVNHKPSNTKVDKKVEPKSCDKTHTCPPCPAPELLGGPSVFLFPPKPKDTLMISRTPEVTCVVVDVSHEDPEVKFNWYVDGVEVHNAKTKPREEQYNSTYRVVSVLTVLHQDWLNGKEYKCKVSNKALPAPIEKTISKAKGQPREPQVYTYPPSREEMTKNQVSLSCAVKGFYPSDIAVEWESNGQPENNYKTTPPVLDSDGSFFLVSKLTVDKSRWQQGNVFSCSVMHEALHNHYTQKSLSLSPGK light 2: not shown | 0.01 | 452000 | 0.0206 | 0.00453 | 0.0296 | 0.0176 | 1.69e+06
